Source: IntAct's records for PubMed 29433439

B1: Phosphocholine transferase AnkX (Legionella pneumophila subsp. pneumophila), Q5ZXN6 (parent)
chain: MVKIMPNLPGLYFLQAYPSEEIWRLFVDGRFWSKENGWRGYESREPGCLNAALESLCSIALQVEKSGEEFELSVDLIKRIHKKCGKKVEELQEKNPGELRTDEPVSFGIPAGRASIKGIEEFLSLVFLTEGGAEFGPGKAGPFGPRFDKNYFKNLNPEQIPDLAKQIYFDMCKYGHSNTNHFYLAVMKNVDVYLEKITQSYNKEIKTAETLDEKLKIIVKHIRMYEVLHPFRDANGRTFVNNLLNILLMQQGLPPATFYEPNVFDLYSAEELVVVVKEAIFNTVEIIEQSKRKTPITLYGYHSSLEEQTKFRDMLDSPSYEKIKHMDFSDLNPEKLHLKTQKCLSSLNEQYPLHRGAIYLSDPGEIKLLLSNRNESQINQQIEQGAPPIYVGKTPAHLAVISGNMAMLDELIAKKADLSLQDYDGKTALHYAAECGNMQIMGKILKVVLSQEDAIKVLNIKDNHGKTAFHYAAEFGTPELISALTTTEVIQINEPDNSGSSAITLAYKNHKLKIFDELLNSGADISDELLDAIWARKDKETLGKIIAKNEKILLNKEAFRIAISLGSVSLVKKFLRAGVDIDIPLTKDKATPLMLSINSGNPKLVSYLLKKGANTRLTDTSGNSVLHYVFYSKAENREALANIITEKDKKLINQPNANGNPPLYNAVVVNDLKMATILLEMGARVDFEDRLGNNILHSAMRRCDLPIILDIVKKDSTLLHKRNSERRNPFHQALHEMHTFPSSKETEEIHFMNLSDLLLKEGVDLNKKDIKGKTILDIALSKQYFHLCVKLMKAGAHTNISSPSKFLKNSDANSILERPFKFKNDLKKELDNNPLIAMAQINDLYVQIKNNRIRTPTGYAPKEGVSFFKGKSNDAKAHDEVLSVLKELYDSKLTEMLGNLPGEGLEEIKRSQKFFDGELKLLIKNQDISRKVDKKSIQEAVGTSLKLKW
partner: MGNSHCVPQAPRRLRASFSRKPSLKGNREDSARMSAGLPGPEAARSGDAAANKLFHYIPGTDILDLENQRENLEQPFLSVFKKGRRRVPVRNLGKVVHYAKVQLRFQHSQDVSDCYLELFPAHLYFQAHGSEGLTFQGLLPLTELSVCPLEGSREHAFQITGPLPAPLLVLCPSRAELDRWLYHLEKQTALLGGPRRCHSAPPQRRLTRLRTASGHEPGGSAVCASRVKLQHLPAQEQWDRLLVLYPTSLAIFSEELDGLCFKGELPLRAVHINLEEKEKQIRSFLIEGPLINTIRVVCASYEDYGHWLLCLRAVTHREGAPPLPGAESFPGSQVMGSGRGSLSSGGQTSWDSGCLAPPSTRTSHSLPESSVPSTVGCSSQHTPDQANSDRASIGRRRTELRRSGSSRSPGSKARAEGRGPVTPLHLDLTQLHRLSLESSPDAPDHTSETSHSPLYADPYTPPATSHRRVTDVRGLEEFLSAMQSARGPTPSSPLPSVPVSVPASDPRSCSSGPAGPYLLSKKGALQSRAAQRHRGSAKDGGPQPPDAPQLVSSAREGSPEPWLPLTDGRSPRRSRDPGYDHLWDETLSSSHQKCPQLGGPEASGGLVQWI

Variants of: B1
Settings: with pkhn1_human PLEKHN1, Q494U1

Variant	effect of a mutation on the interaction
H229A	decreasing interaction
